Source: patent publication US9150884B2, “Microbial conversion of glucose to styrene and its derivatives” (Arizona Board of Regents, a Body Corporate of the State of …, priority 2011, dated 2015)

What was measured:
[1] = Whole cell CADC assay in recombinant E. coli BL21(DE3); type: cell-based; settings: whole cells in pH7 PBS, 1 g/L trans-cinnamic acid, 12 h
Procedure: (§1) Seed cultures consisting of 5 ml of LB broth containing 100 mg/L ampicillin were prepared of E. coli BL21(DE3) strains that were individually transformed with each of pTpad1-fdc1, pTpad1Sc, pTfdc1Sc, pTpdcLp, and pTpadCBs. These cultures were grown for 12 hours at 30° C. while agitating at 250 rpm. 1 mL of each culture was then used to inoculate 3×250 mL cultures flasks containing 50 mL of LB supplemented with 100 mg/L ampicillin. The culture was then grown at 30° C. while agitating at 250 rpm until it reached an OD600 of 0.6, at which point the cultures were induced by the addition of IPTG to a final concentration of 0.2 mM. Cultures were then grown for an additional 6 h. Cells were then collected by centrifuging in 50 ml Falcon tubes for 5 min at 1400×g and washed once with pH7 PBS (phosphate buffered saline) buffer. The entire cell pellet was resuspended in 10 ml pH7 PBS buffer and the appropriate substrate (trans-cinnamic acid or p-coumaric acid) added at a final concentration of 1 g/L. Enzyme activity was monitored by taking 1 mL samples from the culture at both the time of initiation as well as after 12 h of culture. All samples were then analyzed by HPLC using the methods described herein.

[2] = Whole cell PADC assay in recombinant E. coli BL21(DE3); type: cell-based; settings: whole cells in pH7 PBS, 1 g/L p-coumaric acid, 12 h
Procedure: as §1

B1: FDC1: ferulic acid decarboxylase encoded by FDC1 of S. cerevisiae, expressed in recombinant E. coli from pTfdc1Sc (protein, listed as Saccharomyces cerevisiae)
chain: MRKLNPALEFRDFIQVLKDEDDLIEITEEIDPNLEVGAIMRKAYESHLPAPLFKNLKGASKDLFSILGCPAGLRSKEKGDHGRIAHHLGLDPKTTIKEIIDYLLECKEKEPLPPITVPVSSAPCKTHILSEEKIHLQSLPTPYLHVSDGGKYLQTYGMWILQTPDKKWTNWSIARGMVVDDKHITGLVIKPQHIRQIADSWAAIGKANEIPFALCFGVPPAAILVSSMPIPEGVSESDYVGAILGESVPVVKCETNDLMVPATSEMVFEGTLSLTDTHLEGPFGEMHGYVFKSQGHPCPLYTVKAMSYRDNAILPVSNPGLCTDETHTLIGSLVATEAKELAIESGLPILDAFMPYEAQALWLILKVDLKGLQALKTTPEEFCKKVGDIYFRTKVGFIVHEIILVADDIDIFNFKEVIWAYVTRHTPVADQMAFDDVTSFPLAPFVSQSSRSKTMKGGKCVTNCIFRQQYERSFDYITCNFEKGYPKGLVDKVNENWKRYGYK
[1]
  CADC activity (trans-cinnamic acid to styrene): activities on both p-coumaric and trans-cinnamic acid
[2]
  activity on p-coumaric acid (to p-hydroxystyrene): activities on both p-coumaric and trans-cinnamic acid
